Results from patent CN111363035A (DONGGUAN PENGZHI BIOTECHNOLOGY CO LTD, dated 2020).

Target: T1, 重组FABP蛋白(自产，140618) (human, UniProt P05413 1-133, limits assumed)
T1 construct: The coated protein is only called 'recombinant FABP protein'; also called 心型脂肪酸结合蛋白; H-FABP
Assay: indirect ELISA, recombinant FABP protein coated, CHO transient supernatant, goat anti-mouse IgG-HRP

T1 sequence (P05413 whole entry): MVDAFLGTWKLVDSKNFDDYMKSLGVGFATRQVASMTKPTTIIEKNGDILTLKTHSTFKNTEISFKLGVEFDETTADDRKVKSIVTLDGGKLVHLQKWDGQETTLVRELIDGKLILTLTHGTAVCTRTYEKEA

OD450 (reference 630 nm) at 1000-fold dilution of the supernatant: > 1 OD
B1: Anti-FABP 8F3 重组抗体 (抗人心型脂肪酸结合蛋白的重组抗体) (antibody, V domains shown)
VH: QVQLQQPGADLVRPGASVKLSCKTSGYSFTGYFMNWVKQRPGQGLEWIGMIHASDSSTRLNQKFKDKATLTVDKSSTTVYMQFSSPTSEDSAVYYCARGIRDFAYWGQGTLVTVSA
VL: DIVMTQSQKFMSTSVGDRVSITCKASNNIASSVAWYQLRPGQSPKALIYSPTYRYSGIPDRFTGSGSGTDFTLTISNVQSEDLAEYFCQQYNSYPLSFGSGTKLEIK
